Data on one molecule can be found in patent US20060193849A1 (published 2006).

For this assay, the target named is MUC-1 gene product, the membrane mucin glycoprotein (polymorphic epithelial mucin or PEM) (human, UniProt P15941 24-1255). In words: flow cytometry equilibrium binding on MCF7 cells. Background: In flow cytometry, cells or beads pass a laser one at a time.
Chain of MUC-1 gene product, the membrane mucin glycoprotein (polymorphic epithelial mucin or PEM) (P15941 24-1255): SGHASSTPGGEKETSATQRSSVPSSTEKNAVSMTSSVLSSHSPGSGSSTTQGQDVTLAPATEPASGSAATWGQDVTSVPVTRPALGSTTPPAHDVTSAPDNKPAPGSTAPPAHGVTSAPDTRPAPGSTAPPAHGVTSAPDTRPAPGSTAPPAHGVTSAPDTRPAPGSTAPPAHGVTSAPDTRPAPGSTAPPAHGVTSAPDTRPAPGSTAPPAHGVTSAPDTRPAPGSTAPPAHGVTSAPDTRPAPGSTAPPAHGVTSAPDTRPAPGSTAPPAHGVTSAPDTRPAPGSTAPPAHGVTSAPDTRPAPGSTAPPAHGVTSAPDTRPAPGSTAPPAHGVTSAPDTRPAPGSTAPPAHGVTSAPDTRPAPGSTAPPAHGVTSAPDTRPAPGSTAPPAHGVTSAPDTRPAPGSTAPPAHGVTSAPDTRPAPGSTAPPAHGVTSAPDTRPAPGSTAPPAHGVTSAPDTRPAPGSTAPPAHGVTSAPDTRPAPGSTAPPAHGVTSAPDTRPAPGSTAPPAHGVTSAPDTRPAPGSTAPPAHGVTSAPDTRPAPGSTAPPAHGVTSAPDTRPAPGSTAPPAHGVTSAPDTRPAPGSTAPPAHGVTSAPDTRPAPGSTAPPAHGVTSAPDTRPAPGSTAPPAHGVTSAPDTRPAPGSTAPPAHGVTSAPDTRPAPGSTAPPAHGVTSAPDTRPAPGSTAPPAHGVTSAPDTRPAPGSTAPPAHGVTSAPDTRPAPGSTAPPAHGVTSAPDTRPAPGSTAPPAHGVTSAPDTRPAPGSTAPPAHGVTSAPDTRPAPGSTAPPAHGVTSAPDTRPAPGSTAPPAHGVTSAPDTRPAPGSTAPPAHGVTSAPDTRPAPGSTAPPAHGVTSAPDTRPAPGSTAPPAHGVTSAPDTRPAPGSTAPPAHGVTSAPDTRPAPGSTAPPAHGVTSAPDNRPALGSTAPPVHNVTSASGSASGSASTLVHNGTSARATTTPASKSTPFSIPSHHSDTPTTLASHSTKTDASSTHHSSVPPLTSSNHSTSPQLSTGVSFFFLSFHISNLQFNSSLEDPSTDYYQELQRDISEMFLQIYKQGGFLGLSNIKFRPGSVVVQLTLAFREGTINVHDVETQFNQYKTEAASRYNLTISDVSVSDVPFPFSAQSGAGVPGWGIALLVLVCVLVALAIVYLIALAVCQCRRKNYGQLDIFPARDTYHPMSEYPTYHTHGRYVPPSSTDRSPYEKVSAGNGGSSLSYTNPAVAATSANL

B1: huHMFG1 wild-type scFv 4.10W (scFv)
scFv: QVQLVQSGAEVKKPGASVKVSCKASGYTFSAYWIEWVRQAPGKGLEWVGEILPGSNNSRYNEKFKGRVTVTRDTSTNTAYMELSSLRSEDTAVYYCARSYDFAWFAYWGQGTLVTVSSGGGGSGGGGSGGGGSDIQMTQSPSSLSASVGDRVTITCKSSQSLLYSSNQKIYLAWYQQKPGKAPKLLIYWASTRESGVPSRFSGSGSGTDFTFTISSLQPEDIATYYCQQYYRYPRTFGQGTKVEIKR
For B1, the Kd – broadly, the concentration at which binding is half-saturated – stood at 114 nM.
